Assay results from article PMC5706989 (Molecular Biology of the Cell, 2017).

What was measured:
[1] = target: the molecule itself; assay: one-colour scanning fluorescence correlation spectroscopy
[2] = target: the molecule itself; assay: as above; remark: listed apart in the source
[3] = target: the molecule itself; assay: two-colour scanning fluorescence
[4] = target: the molecule itself; assay: two-colour scanning fluorescence; remark: listed apart in the source
[5] = target: the molecule itself; assay: two-colour scanning fluorescence; remark: listed apart in the source
[6] = target: the molecule itself; assay: two-colour scanning fluorescence; remark: listed apart in the source

B1: APLP1–yellow fluorescent protein (APLP1-YFP) (natural protein, UniProt P51693 39-650, looked up)
chain: SLAGGSPGAAEAPGSAQVAGLCGRLTLHRDLRTGRWEPDPQRSRRCLRDPQRVLEYCRQMYPELQIARVEQATQAIPMERWCGGSRSGSCAHPHHQVVPFRCLPGEFVSEALLVPEGCRFLHQERMDQCESSTRRHQEAQEACSSQGLILHGSGMLLPCGSDRFRGVEYVCCPPPGTPDPSGTAVGDPSTRSWPPGSRVEGAEDEEEEESFPQPVDDYFVEPPQAEEEEETVPPPSSHTLAVVGKVTPTPRPTDGVDIYFGMPGEISEHEGFLRAKMDLEERRMRQINEVMREWAMADNQSKNLPKADRQALNEHFQSILQTLEEQVSGERQRLVETHATRVIALINDQRRAALEGFLAALQADPPQAERVLLALRRYLRAEQKEQRHTLRHYQHVAAVDPEKAQQMRFQVHTHLQVIEERVNQSLGLLDQNPHLAQELRPQIQELLHSEHLGPSELEAPAPGGSSEDKGGLQPPDSKDDTPMTLPKGSTEQDAASPEKEKMNPLEQYERKVNASVPRGFPFHSSEIQRDELAPAGTGVSREAVSGLLIMGAGGGSLIVLSMLLLRRKKPYGAISHGVVEVDPMLTLEEQQLRELQRHGYENPTYRFLEERP
- stoichiometry N [1]: 1.9
- stoichiometry N [2]: 2
- stoichiometry N [3]: 1.8
- stoichiometry N [4]: 6
- stoichiometry N [5]: 3
- stoichiometry N [6]: 21
